# According to patent US20230250158A1 (TALEM THERAPEUTICS, published 2023):
# Substitutions are numbered along the chain they refer to. Like-named read-outs stand apart in the source and are kept apart here.
# B1: 21-F2 (antibody, V domains shown)
# VH: QVQLVQSGAEVKKPGASVTVSCKTSGYIFTNYDINWVRQAPGQGLEWVGWVNPNSGKVGYAQKFQGRVIMTRSDSESTAYMELTNLTSDDTAVYYCARGHTDFWGQGTLVTVSS
# VL: QSVLTQPPSVSEAPRQRVTISCSGSSSNIGNNAVNWYQQLPGRAPKLLIYYDDLLPSGVSDRFSGSKSGTSASLAISGLQSEDEADYYCAAWDDSLNGVVFGGGTQLTVL
# B2: 21-F2 optimized (antibody, V domains shown)
# VH: B1 VH with N85Q
# VL: B1 VL
# B3: 23-A11 (antibody, V domains shown)
# VH: QVQLVESGGGVVQPGRSLRLSCAASGFTFSSYGMHWVRQAPGKGLEWVAVISYDGSNKYYADSVKGRFTISRDNSKNTLYLQMNSLRAEDTAVYYCAKEGELRGAFDIWGQGTMVTVSS
# VL: SYVLTQPPSVSVAPGKTARITCGGDNIESKYVHWYQQKPGQAPVLVIYYDTDRPSGIPERFSGANSGNSATLTISRVEAGDEADYYCQVWDRTSGHFVFGPGTKVTVL
# B4: 21-H1 (antibody, V domains shown)
# VH: B3 VH with M114T
# VL: DIVMTQSPLSLPVTPGEPASISCTSSQSLLHSIGYNFVDWYLQKPGQSPQLLIYSASNRASGVPDRFSGSGSGTDFTLKISRVEAEDVGVYYCMQALQRTLYTFGQGTKVESK
# B5: 5-B6 (antibody, V domains shown)
# VH: QVQLVQSGAEVKKPGSSVKVSCKASGGTFSSYAISWVRQAPGQGLEWVGGIIPMFNSASYAQKFQGKVTITADKATNTAYMELSSLRSEDTAVYYCARESSGYYYVSNWFDPWGQGTLVTVSS
# VL: QSVLTQPSSVSGAPGQRVTISCTGSSSNIGAGYDVHWYQQIPGTAPRLLIYANSGRASGVPDRFSGSKSGTSASLAITGLQAEDEADYYCQSYDSSLSGVVFGGGTKLTVL
# B6: 22-F7 (antibody, V domains shown)
# VH: QVQLVESGGGVVQPGRSLRLSCAASGFSFTNYGMHWVRQAPGKGLEWVAVISYDGSIKYYEDSLKGRFTVSRDNSKKTLYLQMNSLRAEDTAVYYCTRERGTGIDYWGLGTLVTVSS
# VL: QSALTQPASVSGYPGQSITLSCTGTKSDIGAYNYVSWYQQHPGKAPKLMVYDVSNRPSGLSNRFSGSKSDNTASLTISGLQAEDEAHYYCSSYTTSGTVVFGGGTKVTVL
# notes: also called bin C
# B7: 24-B8 (antibody, V domains shown)
# VH: QVQLVQSGAEVKKPGSSVKVSCKASGGTFSNYAISWVRQAPGQGLEWMGGIIPILDTTNYAQKFQGRVTITADESTSTAYMELNSLRSEDTAVYYCVREEGFDYWGQGTLVTVSS
# VL: QSVLTQPSSLSASPGASASLTCTLRSGINVGAYNIYWYQQKPGSPPQFVLRYNSDSDNQQGSGVPSRFSGSKDASANAGILLISGLQSEDEAEYYCMIWRSSAWVFGGGTKLTVL
# B8: 27-A11 (antibody, V domains shown)
# VH: QVQLVQSGAEVKKPGASVKVSCKASGYTFTSYYMHWVRQAPGQGLEWMGIIDPSGGSTSYAQKFQGRVTLTRDTSTSTVYMELSSLRSEDTAVYYCARSRDGYIDDAFDIWGQGTLVTVSS
# VL: QSVLTQPPSVSAAPGQKVTISCSGSSSNIGNNYVSWYQQLPGTAPKLLIYDNNKRPSGIPDRFSGSKSGTSATLGITGLQTGDEADYYCGTWDSSLSAGVFGGGTKLTVL
# B9: 22-D9 (antibody, V domains shown)
# VH: QVQLVQSGAEVKKPGSSVNVSCKTSGGTFNTYSINWVRQAPGQGLEWMGEIIPIFDKPNYAQKFQGRVTITADESTSTAYMELTSLRSDDTAVYYCARGTGYYYGMDVWGQGTTVTVSS
# VL: QSVLTQPPSVSGAPRQTVTISCFGSRSNIGNYPVNWYHQVPGKAPKVVVYYDDLLPSGISDRFSGYKSGTSASLTISGLRSEDEADYYCATWDDSLNVWVFGGGTKLTVL
# notes: also called bin 4
# B10: 22-D9 Fab (Fab, V domains shown)
# VH: B9 VH
# VL: B9 VL
# B11: 22-E8 (antibody, V domains shown)
# VH: QVQLVQSGAEVKKPGSSVKVSCKASGGTFSSYAISWVRQAPGQGLEWMGGIIPIFGTTNYAQKFQGRVTITADESTSTAYMELSSLRSEDTAVYYCARDHGYYYGMDVWGQGTTVTVSS
# VL: QSVLTQPSSVSAAPRQRVTLSCSGGDSNIGQNGVNWYLHVPGKAPRLVVYYDYLVSAGMSARFSGSRSGTSASLAISGLQSEDEGVYYCASWDDSLSAWVFGGGTKLTVL
# B12: 23-H7 (antibody, V domains shown)
# VH: QVQLVQSGAEVKLPGASMKVSCKASGYTFSTYYMHWVRQAPGQGPEWMGVIDPSGGTTSYAQKFHDRIAMTRDTSTSTAYLELSSLRSEDMAVYYCARGGFADAVDYWGQGTLVTVSS
# VL: NFMLTQPHSVSGSPGKTVTISCTRNSGSIAGNYVQWYQQRPGSAPTTVIYEDNQRPSGVPDRFSGSIDSSSNSASLTISGLKTEDEADYYCQSYDASHLHVIFGGGTKVTVL
# notes: also called bin 2
# B13: 23-H7 Fab (Fab, V domains shown)
# VH: B12 VH
# VL: B12 VL
# B14: 11-H1 (antibody, V domains shown)
# VH: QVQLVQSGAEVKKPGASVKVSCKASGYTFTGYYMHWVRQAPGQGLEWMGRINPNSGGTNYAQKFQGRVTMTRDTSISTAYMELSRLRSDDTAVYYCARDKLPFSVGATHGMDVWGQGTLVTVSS
# VL: QSVLTQPPSVSEAPRQRVTISCSGSSSNIGNNAVNWYQQLPGQAPRLLIYYDNLLPSGVSDRFSASTSGTSASLAISDLRSEDEADYYCASWDDRLDSPVFGGGTKLTVL
# B15: 8-A2 (antibody, V domains shown)
# VH: QVQLVQSGAEVKKPGASVKVSCKASGYTFTGYYLHWVRQAPGQGLEWMGRINPNSGGTNYAQKFQGRVTMTRDTSISTAYMELSRLTSDDTAVYYCLAVAGTGGDAFDIWGQGTTVTVSS
# VL: DIQMTQSPSTLSASVGDRVTITCRASQSISSWLAWYQQKPGKAPKLLIYAASSLESGVPSRFSGSGSGTDFTLTISSLQPEDFATYYCQQGHSFPLTFGGGTKVDIK
# B16: 2-A6 (antibody, V domains shown)
# VH: QVTLRESGPALVKPTQTLTLTCTFSGFSLNTRGMSVSWIRQPPGKALEWLALIDWEDDKFYRTSLMTRLTISKDIFKNQVVLTMTNVDPVDTGTYYCARTYSVGVKYFGMDVWGQGTTVTVSS
# VL: SSELTQDPAVSVALGQTVRITCQGDSLRNYYASWYRQEPGQAPILLIYGGNYRPSGIPDRFSGSSSGNTASLTITGAQAEDEADYYCNSRDSSGNHVVFGGGTKLTVL
# notes: also called bin S2
# Columns and labels:
# [1] = target: SARS-CoV-2 Spike protein on VSV pseudotyped virus particles (Wuhan-1 isolate Spike sequence) (SARS-CoV-2, UniProt P0DTC2 13-1273); assay: cell-based or functional assay
# [2] = target: SARS-CoV-2 Spike on SARS-CoV2-S CHO-K1 cells (wild-type, Wuhan-1) (SARS-CoV-2, UniProt P0DTC2 13-1273); assay: flow cytometry on SARS-CoV2-S CHO-K1 cells, anti-human IgG-PE detection
# Wuhan-1 = assay: flow cytometry on Spike-transfected HEK293F cells, heat map
# SARS-CoV-2 Spike RBD-hFc [3] = target: T1, SARS-CoV-2 Spike RBD-hFc (SARS-CoV-2, UniProt P0DTC2 319-541); assay: Octet, Fab as analyte over RBD-hFc on AHC sensor
# SARS-CoV-2 Spike RBD-hFc [4] = target: T1, SARS-CoV-2 Spike RBD-hFc; assay: Octet BLI; Fab as analyte over RBD-hFc on AHC sensors; steady-state analysis
# SARS-CoV-2 Spike S1-hFc [5] = target: T2, SARS-CoV-2 Spike S1-hFc (SARS-CoV-2, UniProt P0DTC2 16-685); assay: Octet BLI; Fab as analyte over S1-hFc on AHC sensors; 1:1 kinetic fit
# SARS-CoV-2 Spike S1-hFc [6] = target: T2, SARS-CoV-2 Spike S1-hFc
# SARS-CoV-2 Spike RBD-hFc [7] = target: T1, SARS-CoV-2 Spike RBD-hFc
# SARS-CoV-2 Spike RBD-hFc [8] = target: T1, SARS-CoV-2 Spike RBD-hFc; assay: Octet BLI; Fab as analyte over RBD-hFc on AHC sensors; 1:1 kinetic fit
Binder,Pseudovirus IC50 [1],other results
B1,0.84 µg/mL,–
B2,–,binding result [2]: binds
B3,> 42 µg/mL,–
B4,> 42 µg/mL,–
B5,> 42 µg/mL,–
B6,12.6 µg/mL,–
B7,6.26 µg/mL,–
B8,12.8 µg/mL,–
B9,4.99 µg/mL,binding result (Wuhan-1): binds
B10,–,Kd (SARS-CoV-2 Spike RBD-hFc [3]): 160 nM; Kd (SARS-CoV-2 Spike RBD-hFc [4]): 163 nM
B11,11.2 µg/mL,–
B12,0.84 µg/mL,binding result (Wuhan-1): binds
B13,–,Kd (SARS-CoV-2 Spike S1-hFc [5]): 14 nM; Kd (SARS-CoV-2 Spike S1-hFc [6]): 6 nM; Kd (SARS-CoV-2 Spike RBD-hFc [7]): 9 nM; Kd (SARS-CoV-2 Spike RBD-hFc [8]): 13 nM
B14,> 42 µg/mL,–
B15,> 42 µg/mL,–
B16,> 42 µg/mL,–
